In assay [1] the target is T1, muscle-specific receptor tyrosine kinase (MuSK), wild type, expressed in HEK-293 (human, UniProt O15146 24-869).
T1 sequence (looked up): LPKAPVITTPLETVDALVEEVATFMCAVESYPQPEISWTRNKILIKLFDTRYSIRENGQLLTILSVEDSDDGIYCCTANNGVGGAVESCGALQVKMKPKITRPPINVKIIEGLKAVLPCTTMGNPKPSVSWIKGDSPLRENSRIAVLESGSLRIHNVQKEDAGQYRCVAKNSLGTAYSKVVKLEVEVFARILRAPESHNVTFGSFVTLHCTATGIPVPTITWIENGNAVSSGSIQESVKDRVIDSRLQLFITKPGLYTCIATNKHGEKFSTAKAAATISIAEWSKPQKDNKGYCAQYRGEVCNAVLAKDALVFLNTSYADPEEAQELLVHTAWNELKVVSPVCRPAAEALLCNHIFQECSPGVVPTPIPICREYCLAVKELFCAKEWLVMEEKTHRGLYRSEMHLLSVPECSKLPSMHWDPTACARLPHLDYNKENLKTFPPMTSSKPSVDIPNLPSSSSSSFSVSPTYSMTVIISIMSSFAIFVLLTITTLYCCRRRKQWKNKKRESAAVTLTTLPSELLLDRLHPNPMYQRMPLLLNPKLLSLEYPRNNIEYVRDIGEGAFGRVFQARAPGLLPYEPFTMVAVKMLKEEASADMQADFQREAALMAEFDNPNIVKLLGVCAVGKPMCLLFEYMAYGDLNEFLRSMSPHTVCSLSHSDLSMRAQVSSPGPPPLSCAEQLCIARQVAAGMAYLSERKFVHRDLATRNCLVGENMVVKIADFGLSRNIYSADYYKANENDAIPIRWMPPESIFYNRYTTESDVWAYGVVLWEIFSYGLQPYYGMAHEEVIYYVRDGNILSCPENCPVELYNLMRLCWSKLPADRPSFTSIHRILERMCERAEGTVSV
In words: co-IP.

The next assay has as its target T2, MuSK protein (Millipore) (UniProt O15146 24-495).
T2 chain: T1 sequence (looked up)
In words: plate overlay binding assay with.

Where a chain is given by its changes, count along the chain named.

B1: ColQ p.Asp370Asn (natural protein, human, UniProt Q9Y215-1 23-455, looked up)
chain: QPTFINSVLPISAALPSLDQKKRGGHKACCLLTPPPPPLFPPPFFRGGRSPLLSPDMKNLMLELETSQSPCMQGSLGSPGPPGPQGPPGLPGKTGPKGEKGELGRPGRKGRPGPPGVPGMPGPIGWPGPEGPRGEKGDLGMMGLPGSRGPMGSKGYPGSRGEKGSRGEKGDLGPKGEKGFPGFPGMLGQKGEMGPKGEPGIAGHRGPTGRPGKRGKQGQKGDSGVMGPPGKPGPSGQPGRPGPPGPPPAGQLIMGPKGERGFPGPPGRCLCGPTMNVNNPSYGESVYGPSSPRVPVIFVVNNQEELERLNTQNAIAFRRDQRSLYFKDSLGWLPIQLTPFYPVDYTANQHGTCGDGLLQPGEECDDGNSDVGDDCIRCHRAYCGDGHRHEGVEDCDGSDFGYLTCETYLPGSYGDLQCTQYCYIDSTPCRYFT
Consider B1, for which the “percent reduction of binding to MuSK against WT ColQ” value (from here on “percent reduction of binding to MuSK”) in assay [1] came to 1.5%.

B2: purified A12 asymmetric form of AChE with ColQ p.Cys397Ser (complex, human)
chain 1: B1 chain with N348D, C375S
chain 2: EGREDAELLVTVRGGRLRGIRLKTPGGPVSAFLGIPFAEPPMGPRRFLPPEPKQPWSGVVDATTFQSVCYQYVDTLYPGFEGTEMWNPNRELSEDCLYLNVWTPYPRPTSPTPVLVWIYGGGFYSGASSLDVYDGRFLVQAERTVLVSMNYRVGAFGFLALPGSREAPGNVGLLDQRLALQWVQENVAAFGGDPTSVTLFGESAGAASVGMHLLSPPSRGLFHRAVLQSGAPNGPWATVGMGEARRRATQLAHLVGCPPGGTGGNDTELVACLRTRPAQVLVNHEWHVLPQESVFRFSFVPVVDGDFLSDTPEALINAGDFHGLQVLVGVVKDEGSYFLVYGAPGFSKDNESLISRAEFLAGVRVGVPQVSDLAAEAVVLHYTDWLHPEDPARLREALSDVVGDHNVVCPVAQLAGRLAAQGARVYAYVFEHRASTLSWPLWMGVPHGYEIEFIFGIPLDPSRNYTAEEKIFAQRLMRYWANFARTGDPNEPRDPKAPQWPPYTAGAQQYVSLDLRPLEVRRGLRAQACAFWNRFLPKLLSATDTLDEAERQWKAEFHRWSSYMVHWKNQFDHYSKQDRCSDL
In turn, B2 yielded an other with MuSK protein (Millipore) of 18%.

B3: purified A12 asymmetric form of AChE with ColQ p.Asp370Asn (complex, human)
chain 1: B1 chain
chain 2: B2 chain 2
In turn, B3 displayed an other in the assay with MuSK protein (Millipore) of 15%.

B4: ColQ p.Cys400Tyr (natural protein, human, UniProt Q9Y215-1 23-455, looked up)
chain: B1 chain with N348D, C378Y
For B4, the “percent reduction of binding to MuSK” value in assay [1] stood at 5%.

B5: ColQ p.Gly423Val (natural protein, human, UniProt Q9Y215-1 23-455, looked up)
chain: B1 chain with N348D, G401V
In the case of B5, the “percent reduction of binding to MuSK” value in assay [1] stood at 16.8%.

B6: ColQ p.Cys397Ser (natural protein, human, UniProt Q9Y215-1 23-455, looked up)
chain: B1 chain with N348D, C375S
Take B6: the “percent reduction of binding to MuSK” value in assay [1] was found to be 6.7%.

B7: ColQ p.Tyr404Asp (natural protein, human, UniProt Q9Y215-1 23-455, looked up)
chain: B1 chain with N348D, Y382D
Turning to B7, the “percent reduction of binding to MuSK” value in assay [1] was determined as 7.4%.

For the origin of these results see paper PMC4024244 (Human genetics, 2013).
